Changes are numbered by the printed parent chain. Where no end group is shown, it is not given here.
B1: ZIL8: fully canine anti IL-31 antibody, VH SEQ ID NO: 79, VL SEQ ID NO: 81 (antibody, listed as Canis familiaris, V domains shown)
VH: EVQLVESGGDLVKPAGSLRLSCVASGFTFSDYAMSWVRQAPGRGLQWVAGIDSVGSGTSYADAVKGRFTISRDDAKNTLYLQMFNLRAEDTAIYYCASGFPGSFEHWGQGTLVTVSS
VL: QSVLTQPASVSGSLGQKVTISCTGSSSNIGSGYVGWYQQLPGTGPRTLIYYNSDRPSGVPDRFSGSRSGTTATLTISGLQAEDEADYYCSVYDRTFNAVFGGGT
B2: ZIL159: fully canine anti IL-31 antibody, VH SEQ ID NO: 103, VL SEQ ID NO: 105 (antibody, listed as Canis familiaris, V domains shown)
VH: EVQLVESGGDLVKPAGSLRLSCVASGFTFSSYVMTWVRQAPGKGLQWVAGINSEGSRTAYADAVKGRFTISRDNAKNTLYLQIDSLRAEDTAIYYCATGDIVATGTSYWGQGTLVTVSS
VL: SNVLTQPPSVSVSLGQTATISCSGETLNRFYTQWFQQKAGQAPVLVIYKDTERPSGIPDRFSGSSSGNIHTLTISGARAEDEAAYYCKSAVSIDVGVFGGGTHLTVF
B3: ZIL69: fully canine anti IL-31 antibody, VH SEQ ID NO: 91, VL SEQ ID NO: 93 (antibody, listed as Canis familiaris, V domains shown)
VH: EVQLVESGGDLVKPAGSLRLSCVASGFTFSSYAMKWVRQAPGKGLQWVATINNDGTRTGYADAVRGRFTISKDNAKNTLYLQMDSLRADDTAVYYCTKGNAESGCTGDHCPPYWGQGTLVTVSS
VL: SSVLTQPPSVSVSLGQTATISCSGESLNKYYAQWFQQKAGQAPVLVIYKDTERPSGIPDRFSGSSAGNTHTLTISGARAEDEADYYCESAVSSETNVFGSGTQLTVL
B4: ZIL171: fully canine anti IL-31 antibody, VH SEQ ID NO: 107, VL SEQ ID NO: 109 (antibody, listed as Canis familiaris, V domains shown)
VH: EVQLVESGGDLVKPAGSLRLSCVASGFTFRTYVMNWVRQAPGKGLQWVASINGGGSSPTYADAVRGRFTVSRDNAQNSLFLQMNSLRAEDTAIYFCVVSMVGPFDYWGHGTLVTVSS
VL: B3 VL with E25K, N28S, K29Y, A66S, E94D, N96I, S100G, Q103H
B5: ZIL94: fully canine anti IL-31 antibody, VH SEQ ID NO: 95, VL SEQ ID NO: 97 (antibody, listed as Canis familiaris, V domains shown)
VH: EVQLVDSGGDLVKPGGSLRLSCVASGFTFSTYFMSWVRQAPGRGLQWVALISSDGSGTYYADAVKGRFTISRDNAKNTLYLQMNSLRAEDTAMYYCAIFWRAFNDWGQGTLVTVSS
VL: QTVVIQEPSLSVSPGGTVTLTCGLNSGSVSTSNYPGWYQQTRGRTPRTIIYDTGSRPSGVPNRFSGSISGNKAALTITGAQPEDEADYYCSLYTDSDILVFGGGTHLTVL

Experiments:
[1] = system: mAb ZTS-361; test: Peptide block of mAb ZTS-361 inhibition of IL-31 mediated STAT3 phosphorylation in feline FCWF-4 macrophages; format: cell-based; conditions: for IC50, conjugated peptide: CRM197 conjugated, co-incubated 1 hour with 0.2 μM mAb ZTS-361, FCWF-4 cells
Chain of mAb ZTS-361 (as listed by the source): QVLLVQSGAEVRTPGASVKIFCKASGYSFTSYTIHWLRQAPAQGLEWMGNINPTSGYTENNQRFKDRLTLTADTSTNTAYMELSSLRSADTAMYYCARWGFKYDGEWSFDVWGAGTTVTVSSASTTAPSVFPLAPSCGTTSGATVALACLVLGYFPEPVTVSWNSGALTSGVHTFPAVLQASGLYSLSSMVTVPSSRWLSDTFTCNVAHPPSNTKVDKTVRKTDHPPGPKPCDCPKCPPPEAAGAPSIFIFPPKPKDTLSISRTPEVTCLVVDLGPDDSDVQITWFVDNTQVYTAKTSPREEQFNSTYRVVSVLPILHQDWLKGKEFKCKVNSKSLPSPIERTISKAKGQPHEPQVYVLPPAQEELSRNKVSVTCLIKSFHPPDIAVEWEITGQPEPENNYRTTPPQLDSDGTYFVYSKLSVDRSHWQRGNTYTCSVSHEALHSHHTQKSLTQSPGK
Chain of mAb ZTS-361 (as listed by the source): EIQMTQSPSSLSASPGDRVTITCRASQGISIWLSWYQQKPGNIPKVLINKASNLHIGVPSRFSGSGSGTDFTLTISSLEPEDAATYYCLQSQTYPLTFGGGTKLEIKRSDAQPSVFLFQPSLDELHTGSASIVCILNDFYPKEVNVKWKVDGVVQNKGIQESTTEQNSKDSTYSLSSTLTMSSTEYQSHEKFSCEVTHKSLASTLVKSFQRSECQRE

[2] = system: wildtype feline IL-31; test: Indirect ELISA, binding to wildtype feline IL-31
Chain of wildtype feline IL-31 (as listed by the source): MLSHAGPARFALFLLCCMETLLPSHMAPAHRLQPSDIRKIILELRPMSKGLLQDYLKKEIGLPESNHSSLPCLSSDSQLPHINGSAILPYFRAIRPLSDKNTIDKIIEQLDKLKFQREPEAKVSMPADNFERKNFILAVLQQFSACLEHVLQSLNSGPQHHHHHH
Description: (§1) Mice and dogs were immunized with recombinant canine IL-31 (SEQ ID No. 155) for the purpose of identifying antibodies. Serum antibody titers from immunized animals were determined using an enzyme linked immunosorbent assay (ELISA). Canine or feline IL-31 (50 ng/well) was immobilized to polystyrene microplates and used as a capture antigen. Serum from immunized animals was diluted in phosphate buffered saline with 0.05% tween-20 (PBST). The presence of anti-IL-31 antibodies was detected with an appropriate secondary HRP labeled antibody. Following addition of a chromogenic substrate (SureBlue Reserve TMB 1-Component Microwell Peroxidase Substrate, KPL, Inc., Gaithersburg, Md.) and a ten minute incubation at room temperature (RT) the reaction was stopped with the addition of […] of 0.1 N HCl. The absorbance of each well was determined at an optical density (OD) of 450 nm. Antibodies were selected for their ability to bind canine and feline IL-31 using an ELISA. In some cases, further characterization was performed at the time of selection using an ELISA with a mutant form of the feline IL-31 protein as a capture antigen. Cells producing antibodies with desired binding and inhibitory properties were chosen for sequence analysis of RNA transcripts representing the variable heavy (VH) and variable light (VL) IgG chains.
(§2) For the indirect ELISA method, antibody binding to wildtype and feline IL-31 15H05 mutant proteins was assessed. […] In comparison, the 11E12 antibody bound to the wild-type feline IL-31 and its binding was not impacted by the mutations in the 15H05 epitope region as evidenced by the data in FIG. 4. To confirm binding, biacore analysis was performed using canine, feline, equine, human, feline 15H05 mutant, and feline 11E12 mutant IL-31 proteins as surfaces and a single test concentration of antibody. Similar to ELISA observations, all antibodies tested bound to wildtype feline IL-31. In agreement with the data described above in this section, mouse antibodies 11 E12 and 15H05 both bound to canine and feline IL-31 surfaces. […] From this group of nine fully canine antibodies, only ZIL1 and ZIL9 cross-reacted with equine IL-31. Of note, antibody 15H05 was the only one of all assayed herein that bound to canine, feline, and equine IL-31 indicating some level of epitope conservation across the three species. In contrast, none of the antibodies described herein bound to human IL-31. Additional biacore surfaces were used to verify ELISA observations showing differential binding of antibodies to wildtype feline IL-31 and two proteins with mutations in the 15H05 (15H05 mutant) or 11 E12 (11E12 mutant) epitopes. […] Differing results can be attributed to differences in the two assay methodologies.
(§3) To determine the impact of mAbs 11E12 and 15H05 ability to bind these mutant forms of feline IL-31, an indirect ELISA was run using the mutants directly coated on to an immunoassay plate. […] The minor attenuation of mAb 15H05s binding to the 11E12 mutant is likely due to translational effects of the mutations from movement of the two front helices effecting the 15H05 binding site. The mutations designed to affect mAb 15H05s binding (mutant 15H05) show a complete loss of mAb 1505s ability to bind this IL-31 mutant by ELISA. Unlike the 11E12 mutant, the changes in the random coil recognized by mAb 15H05 (mutant 15H05) had no impact on mAb 11E12 binding further supporting the distinction between the two epitopes (FIG. 6C).

[3] = system: feline IL-31 15H05 mutant; test: Indirect ELISA, binding to feline IL-31 15H05 mutant; conditions: compared with wildtype
Chain of feline IL-31 15H05 mutant (as listed by the source, change not shown): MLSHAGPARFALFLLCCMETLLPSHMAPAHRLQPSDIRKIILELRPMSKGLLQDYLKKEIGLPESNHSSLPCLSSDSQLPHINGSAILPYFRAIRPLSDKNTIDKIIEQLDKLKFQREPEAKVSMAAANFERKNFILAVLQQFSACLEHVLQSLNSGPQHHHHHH
Description: as §1, §2, §3

[4] = system: feline 11E12 mutant IL-31; test: Biacore binding, single test concentration of antibody, feline 11E12 mutant IL-31 surface
Chain of feline 11E12 mutant IL-31 (as listed by the source, stated change not applied): as the sequence (as listed by the source, change not shown) above, with D104A, I107A, A126P, A128D counted along it
Description: (§4) For the indirect ELISA, binding (ELISA OD) to wildtype feline IL-31 and a feline IL-31 15H05 mutant which had mutations in the monoclonal antibody 15H05 epitope region was assessed. To confirm binding, biacore analysis was performed using canine, feline, equine, human, the feline 15H05 mutant, and feline 11E12 mutant IL-31 proteins as surfaces and a single test concentration of antibody. The feline IL-31 11E12 mutant had mutations in the monoclonal antibody 11E12 epitope region.
as §2

[5] = system: canine IL-31; test: Biacore binding, single test concentration of antibody, canine IL-31 surface
Chain of canine IL-31 (as listed by the source): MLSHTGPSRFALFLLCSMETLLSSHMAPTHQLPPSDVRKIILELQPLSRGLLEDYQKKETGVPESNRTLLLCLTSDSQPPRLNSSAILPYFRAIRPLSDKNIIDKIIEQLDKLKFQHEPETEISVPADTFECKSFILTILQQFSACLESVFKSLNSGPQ
Description: as §4, §2

[6] = system: feline 15H05 mutant IL-31; test: Biacore binding, single test concentration of antibody, feline 15H05 mutant IL-31 surface
Description: as §4, §2

Row | Molecule | IC50, conjugated peptide [1] | decline of potency following conjugation ([1]; conjugated vs unconjugated) | binding to wildtype feline IL-31 (ELISA) [2] | binding to feline IL-31 15H05 mutant (ELISA) [3] | binding to feline 11E12 mutant IL-31 (Biacore) [4] | binding to canine IL-31 (Biacore) [5] | binding to feline 15H05 mutant IL-31 (Biacore) [6]
1 | ZTS-564: constrained canine IL-31 15H05 mimotope, N-TEISVPADTFERKSFILT-C plus terminal Cysteines, mT2b linker | poor potency | – | – | – | – | – | –
2 | constrained canine IL-31 15H05 mimotope, N-TEISVPADTFERKSFILT-C plus N and C terminal Cysteines, mT2a linker [ZTS-561] | poor potency | – | – | – | – | – | –
3 | constrained canine IL-31 15H05 mimotope, N-EISVPADTFERKSF-C plus N and C terminal Cysteines (CEISVPADTFERKSFC; cysteine pairing not given here; also: constrained, mode not given here) [ZTS-562] | 3.024 µg/mL | approximately 3 fold | – | – | – | – | –
4 | B1 | – | – | capable of binding | binding was impacted | impacted | – | –
5 | B2 | – | – | capable of binding | binding was impacted | impacted | dual binding property | –
6 | B3 | – | – | capable of binding | binding was impacted | – | partial canine binding | –
7 | B4 | – | – | capable of binding | binding was impacted | – | – | partially affected
8 | B5 | – | – | capable of binding | binding was impacted | – | dual binding property | –

Source: US11433139B2, “Peptide vaccines against interleukin-31” (Zoetis Services LLC, priority 2018, dated 2022)
